Experimental findings from patent US20230312698A1 (NANJING GENSCRIPT BIOTECH, published 2023) are described below.

The target in experiment [1] is T1, human Ang2 protein (R&D Systems, 623-AN-01M/CF; 623-AN/CF) (human, UniProt O15123 19-496).
T1 chain: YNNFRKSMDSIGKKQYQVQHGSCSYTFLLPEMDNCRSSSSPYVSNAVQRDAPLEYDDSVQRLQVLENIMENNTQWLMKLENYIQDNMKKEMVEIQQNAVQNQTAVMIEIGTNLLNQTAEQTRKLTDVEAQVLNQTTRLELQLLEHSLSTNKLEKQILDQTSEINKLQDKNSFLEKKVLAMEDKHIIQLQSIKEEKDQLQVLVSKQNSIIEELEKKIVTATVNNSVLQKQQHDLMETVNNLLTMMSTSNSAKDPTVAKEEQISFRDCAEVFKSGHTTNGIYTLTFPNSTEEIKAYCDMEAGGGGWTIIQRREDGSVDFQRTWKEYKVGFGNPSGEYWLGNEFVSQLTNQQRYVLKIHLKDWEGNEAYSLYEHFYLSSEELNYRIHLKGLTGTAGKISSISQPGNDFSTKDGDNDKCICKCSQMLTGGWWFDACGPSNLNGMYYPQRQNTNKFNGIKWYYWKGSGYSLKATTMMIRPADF
The experiment in a line: ELISA. Background: ELISA stands for enzyme-linked immunosorbent assay.

Experiment [2] addresses T2, membrane-anchored human Ang2 protein expressed on CHO-K1 cells (human, UniProt O15123 19-496).
T2 chain: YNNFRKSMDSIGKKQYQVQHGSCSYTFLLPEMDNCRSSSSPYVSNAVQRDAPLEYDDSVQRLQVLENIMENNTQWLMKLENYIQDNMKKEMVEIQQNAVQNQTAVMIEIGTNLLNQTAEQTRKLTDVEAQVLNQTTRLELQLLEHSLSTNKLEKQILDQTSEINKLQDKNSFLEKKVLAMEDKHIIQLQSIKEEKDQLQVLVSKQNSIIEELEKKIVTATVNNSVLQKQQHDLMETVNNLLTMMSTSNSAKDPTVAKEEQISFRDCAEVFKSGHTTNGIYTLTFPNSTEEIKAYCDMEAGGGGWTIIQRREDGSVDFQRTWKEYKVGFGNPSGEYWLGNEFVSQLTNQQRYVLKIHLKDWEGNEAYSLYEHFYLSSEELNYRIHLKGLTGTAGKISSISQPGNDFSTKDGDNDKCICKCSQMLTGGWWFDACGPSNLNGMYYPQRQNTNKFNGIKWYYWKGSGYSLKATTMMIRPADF
Briefly: FACS. Background: A flow cytometer gives signals particle by particle.

Experiment [3] concerns the target T3, membrane-anchored cyno Ang2 protein expressed on CHO-K1 cells (cyno, UniProt A0A2K5VNX6 19-496).
T3 chain: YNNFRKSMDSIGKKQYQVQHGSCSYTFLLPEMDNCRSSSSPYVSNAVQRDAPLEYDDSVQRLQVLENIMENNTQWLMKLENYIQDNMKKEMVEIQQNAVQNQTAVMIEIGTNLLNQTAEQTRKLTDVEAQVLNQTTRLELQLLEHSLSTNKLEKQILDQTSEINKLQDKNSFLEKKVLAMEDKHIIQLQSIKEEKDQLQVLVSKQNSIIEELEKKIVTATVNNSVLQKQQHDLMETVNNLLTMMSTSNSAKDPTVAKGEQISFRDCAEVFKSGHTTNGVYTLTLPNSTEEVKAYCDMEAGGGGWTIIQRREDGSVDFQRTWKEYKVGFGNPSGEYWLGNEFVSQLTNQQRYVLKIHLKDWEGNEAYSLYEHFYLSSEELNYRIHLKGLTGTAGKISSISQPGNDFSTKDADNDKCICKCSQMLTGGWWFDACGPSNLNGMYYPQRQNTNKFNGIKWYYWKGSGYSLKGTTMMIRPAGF
The experiment in a line: FACS.

For experiment [4], the target named is T1, human Ang2 protein (R&D Systems, …). The experiment in a line: ELISA.
For experiment [5], the target named is T4, human Ang2 protein (R&D Systems, 623-AN-01M/CF; 623-AN/CF) (human, UniProt O15123 19-496).
T4 construct: Bought recombinant protein; also called Ang2 proteins; angiopoietin-2
T4 sequence (looked up): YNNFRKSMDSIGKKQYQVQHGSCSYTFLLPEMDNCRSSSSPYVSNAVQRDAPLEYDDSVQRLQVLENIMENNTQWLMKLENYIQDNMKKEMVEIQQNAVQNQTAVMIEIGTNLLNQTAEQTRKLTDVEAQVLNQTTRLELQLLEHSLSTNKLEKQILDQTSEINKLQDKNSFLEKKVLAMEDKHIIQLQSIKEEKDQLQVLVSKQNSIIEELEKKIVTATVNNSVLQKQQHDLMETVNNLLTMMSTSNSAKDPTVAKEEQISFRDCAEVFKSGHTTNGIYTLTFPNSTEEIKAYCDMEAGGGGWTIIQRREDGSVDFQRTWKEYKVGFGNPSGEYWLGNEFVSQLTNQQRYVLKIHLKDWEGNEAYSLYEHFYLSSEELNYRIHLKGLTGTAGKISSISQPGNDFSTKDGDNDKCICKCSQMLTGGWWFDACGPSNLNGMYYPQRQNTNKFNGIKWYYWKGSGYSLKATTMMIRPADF
Briefly: indirect ELISA, human Ang2 coated at 0.5 µg/ml. As for the experimental part: (§1) The antibodies were tested for their binding activities to Ang2 in an indirect ELISA. Briefly, 100 μl of 0.5 μg/ml human or mouse Ang2 proteins (R&D Systems; 623-AN-01M/CF for human Ang2, 7186-AN-025/CF for mouse Ang2) were pre-coated onto ELISA plates overnight at 4° C. On the next day, the plates were incubated with […] diluted primary antibodies, with initial concentration at 1 μg/ml. The plates were added with HRP-conjugated goat anti-mouse IgG (H+L) and then TMB for chromogenic reaction. The antibody-antigen binding curves were generated with optical density readings at 450 nm. Raw data was plotted using GraphPad Prism v6.02 software with four parameters, and best-fit values program was used to analyze the EC₅₀.

In experiment [6] the target is T5, mouse Ang2 protein (R&D Systems, 7186-AN-025/CF) (mouse, UniProt O35608 19-496, limits assumed).
T5 construct: Bought recombinant protein
T5 sequence (looked up): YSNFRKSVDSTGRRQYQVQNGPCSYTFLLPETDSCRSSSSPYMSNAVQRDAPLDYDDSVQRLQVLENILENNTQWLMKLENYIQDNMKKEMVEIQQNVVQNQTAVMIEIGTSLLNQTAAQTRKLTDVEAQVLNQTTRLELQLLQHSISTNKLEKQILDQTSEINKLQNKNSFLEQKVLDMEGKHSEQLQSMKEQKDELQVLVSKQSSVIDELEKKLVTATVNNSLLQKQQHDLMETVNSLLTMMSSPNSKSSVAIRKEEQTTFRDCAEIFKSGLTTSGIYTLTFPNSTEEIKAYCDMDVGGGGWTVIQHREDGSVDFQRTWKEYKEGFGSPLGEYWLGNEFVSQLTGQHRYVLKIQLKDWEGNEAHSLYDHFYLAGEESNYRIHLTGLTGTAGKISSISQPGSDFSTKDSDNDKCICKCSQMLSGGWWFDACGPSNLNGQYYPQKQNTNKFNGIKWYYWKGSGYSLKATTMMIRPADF
The experiment in a line: indirect ELISA, mouse Ang2 coated at 0.5 µg/ml. As for the experimental part: as §1

Experiment [7] has as its target T4, human Ang2 protein (R&D Systems, …). The experiment in a line: indirect ELISA, human Ang2 coated at 0.5 µg/ml, anti-human IgG-HRP. As for the experimental part:
The humanized antibodies were tested for their binding activities to human Ang2 in an indirect ELISA. Briefly, 100 μl of 0.5 μg/ml human Ang2 proteins (R&D Systems; 623-AN-01M/CF) were pre-coated onto ELISA plates overnight at 4° C. On the next day, the plates were incubated with 100 μl 3× serially diluted primary antibodies, with initial concentration at 1 μg/ml. The plates were added with HRP-conjugated goat anti-human IgG antibody (Jackson, cat #109-605-098) and then TMB for chromogenic reaction. The antibody-antigen binding curves were generated with optical density readings at 450 nm. Antibody ABA and IgG1 were used as a positive and negative control respectively. Raw data was plotted using GraphPad Prism v6.02 software with four parameters, and best-fit values program was used to analyze the EC₅₀.

Like-named read-outs stand apart in the source and are kept apart here.

B1: 53E8B2-VH3-VL2 (antibody, V domains shown)
VH: EVQLVESGGGLVQPGGSLRLSCAASGFTFSDYAMAWVRQAPGKGLEWVATIIYDGSSTYYRDSVKGRFTISRDNAKNSLYLQMNSLRAEDTAVYYCARHGRVFGFGYFDYWGQGTLVTVSS
VL: DIQMTQSPSSVSASVGDRVTITCQASQDIGDWVAWYQQKPGRAPKLLIYGADRLADGVPSRFSGSGSGTDFTLTISSLQPEDFATYYCLQDYSPPFTFGQGTKLEIK
As a reminder, the EC50 is the concentration that produces a half-maximal response. Lower therefore signals higher potency in that assay. B1 showed an EC50 in experiment [1] of 4.35 ng/mL.

B2: 5A7B9 (antibody, V domains shown)
VH: QIQLVQSGPELKKPGETVKISCKASGYTFTNYGVNWVKQAPGKGLKWMGWINSYSGVPTYADDFKGRFAFSLETSASTAYLQINNLKNEDTATYFCARGENNYYGGSYDWGQGTTLTVSS
VL: SIVMTQTPKFLLVSAGDRVTITCKASQSVSNDVAWYQQKPGQSPKLLIYYASNRYTGVPDRFTGSGYGTDFTFTISTVQAEDLAVYFCQQDYSSPLTFGAGTKLELK
notes: Hybridoma antibody purified with Protein-A beads
Turning to B2, the EC50 in experiment [2] amounted to 0.369 nM; in experiment [3], 0.662 nM; in experiment [4], 7.47 ng/mL. Besides, the binding result in experiment [5] is “binds”; in experiment [6], “no binding (tested: initial concentration at 1 µg/ml)”.

B3: 4D8F2 (antibody, V domains shown)
VH: DVQLQESGPGLVKPSQSLSLTCTVTGYSITSDYAWNWIRQFPGNKLEWMGYISYSGSTSYNPSLKSRISITRDTSKNQFFLQLNSVTTEDTATYYCARGVRGDMDYWGQGTSVTVSS
VL: SIVMTQTPKFLLVSAGDRVTITCKASQSVSNDVAWYQQKPGQSPKLLIYYASNRYTGVPDRFTGSGYGTDFTFTISTVQAEDLAVYFCQQDYSSPFTFGSGTKLEIK
notes: as for B2
In the case of B3, the EC50 came to 1.69 nM in experiment [2], 2.37 nM in experiment [3] and 7.17 ng/mL in experiment [4]. The binding result is “binds” in experiment [5] and “no binding (tested: initial concentration at 1 µg/ml)” in experiment [6].

B4: 42A2A6 (antibody, V domains shown)
VH: DVQLQESGPGLVKPSQSLSLTCTVTGYSITSDYAWNWIRQFPGNKLEWMGFINYSGTTSYNPSLKSRISLTRDTSKNQFFLQLNSVTTEDTATYYCARWGYSDFLYYFDYWGQGTTLTVSS
VL: QIVLSQSPAILSASPGEKVTMTCRASSSVSYIHWYQQKPGYSPKPWIYATSNLASGVPARFSGGGSGTSYSLTISRVEAEDAATYYCQQWSNNPWTFGGGTKLEIK
notes: as for B2
With B4, the EC50 in experiment [2] was found to be 7.84 nM; in experiment [3] it was 3.88 nM; in experiment [4], 9.87 ng/mL. For the same molecule, the binding result in experiment [5] is on record as “binds”; in experiment [6], “no binding (tested: initial concentration at 1 µg/ml)”.

B5: 85E10B9-VH1-VL6 (antibody, V domains shown)
VH: QVQLVQSGAEVKKPGASVKVSCKASGYTFTNHYLHWVRQAPGQGLEWMGWIGPTNGDTSYAQKFKDRVTMTRDTSISTAYMELSRLRSDDTAVYYCAREGYFTNYFDYWGQGTLVTVSS
VL: DIQMTQSPSSLSASVGDRVTITCKASQNVIKYLAWYQQKPGKAPKRLIYNASSLQTGVPSRFSGSGSGTEFTLTISSLQPDDFATYYCLQYNSWWTFGQGTKVEIK
Molecule B5 returned an EC50 in experiment [1] of 7.29 ng/mL.

B6: 85E10B9-VH3-VL1 (antibody, V domains shown)
VH: QVQLVQSGAEVKKPGASVKVSCKASGYTFTNHYLHWVRQAPGQRLEWMGWIGPTNGDTSYAQKFKDRVTITRDTSASTAYMELSSLRSEDTAVYYCAREGYFTNYFDYWGQGTLVTVSS
VL: DIQMTQSPSSLSASVGDRVTITCKASQNVIKYLAWYQQKPGKVPKLLIYNASSLQTGVPSRFSGSGSGTDFTLTISSLQPEDVATYYCLQYNSWWTFGGGTKVEIK
notes: Humanized antibody expressed in CHO-3E7; also called humanized 85E10B9 lead
As to B6, the EC50 in experiment [1] worked out at 0.718 ng/mL. In addition, the binding result in experiment [7] is “binds”.

B7: 85E10B9-VH3-VL2 (antibody, V domains shown)
VH: QVQLVQSGAEVKKPGASVKVSCKASGYTFTNHYLHWVRQAPGQRLEWMGWIGPTNGDTSYAQKFKDRVTITRDTSASTAYMELSSLRSEDTAVYYCAREGYFTNYFDYWGQGTLVTVSS
VL: DIQLTQSPSFLSASVGDRVTITCKASQNVIKYLAWYQQKPGKAPKLLIYNASSLQTGVPSRFSGSGSGTEFTLTISSLQPEDFATYYCLQYNSWWTFGGGTKVEIK
The molecule B7 showed an EC50 in experiment [1] of 4.52 ng/mL.

B8: 46H3H3 (antibody, V domains shown)
VH: EVKLVESGGGLVQPGGSRKLSCAASGFTFSDYGMVWVRQAPGKGLEWVAYIGSGRSTIYYADTVKGRFTISRDNPKNTLFLQMSSLRSEDTAMYYCAREDNGYSYAMDYWGQGTSVTVSS
VL: DIQMTQSPASQSASLGESVTITCLASQTIGTWLAWYQQKPGKSPQLLIYAATSLADGVPSRFSGSGSGTKFSFKISSLQAEDFVSYYCQQLYSTPLTFGAGTKLELK
notes: as for B2
In the case of B8, the EC50 in experiment [2] was 0.203 nM; in experiment [3] it was 0.342 nM; in experiment [4] it was 6.34 ng/mL. Moreover, the binding result in experiment [5] is on record as “binds”; in experiment [6] it was “no binding (tested: initial concentration at 1 µg/ml)”.
